Data from patent US20060009381A1 (I P RANDYWYCK B V, published 2006).

Biological target: the molecule itself
Assay: FRET by flow cytometry, mixtures of Annexin A5-FITC and Annexin A5-Alexa568 on PtdSer-coated paramagnetic beads
Procedure: Formation of two-dimensional lattices on the phospholipids surfaces was assessed FRET (fluorescence resonance energy transfer) analysis. Paramagnetic beads (1-4 μm in diameter) that were coated with a phospholipids bilayer containing PtdSer were incubated with mixtures of Annexin A5-FITC and Annexin A5-Alexa568 or mixtures of M23-FITC and M23-Alexa568. Fluorescence intensity of the beads was then measured by flow cytometry (Coulter Epics XL-MLC™) using an excitation of 488 nm and emission ranges of 515-530 nm (F11) and >600 nm (F13).

B1: Annexin A5 (other)
chain: AQVLRGTVTDFPGFDERADAETLRKAMKGLGTDEESILTLLTSRSNAQRQEISAAFKTLFGRDLLDDLKSELTGKFEKLIVALMKPSRLYDAYELKHALKGAGTNEKVLTEIIASRTPEELRAIKQVYEEEYGSSLEDDVVGDTSGYYQRMLVVLLQANRDPDAGIDEAQVEQDAQALFQAGELKWGTDEEKFITIFGTRSVSHLRKVFDKYMTISGFQIEETIDRETSGNLEQLLLAVVKSIRSIPAYLAETLYYAMKGAGTDDHTLIRVMVSRSEIDLFNIRKEFRKNFATSLYSMIKGDTSGDYKKALLLLCGEDD
modifications: FITC or Alexa568-succinimidylester coupled to amines (positions not stated)
notes: The FRET assay used mixtures of Annexin A5-FITC and Annexin A5-Alexa568 on paramagnetic beads coated with a PtdSer bilayer; also called Annexin A5-FITC; Annexin A5-Alexa568
  binding result: binds
